Source: publication doi:10.1101/2025.10.15.682582, “A recombinant norrin-derived growth factor retains the complete multifunctionality of human norrin” (bioRxiv, 2025)

Molecular target: T1, rhFrizzled-4/FC Chimera (human, UniProt Q9ULV1 37-212)
T1 sequence (looked up): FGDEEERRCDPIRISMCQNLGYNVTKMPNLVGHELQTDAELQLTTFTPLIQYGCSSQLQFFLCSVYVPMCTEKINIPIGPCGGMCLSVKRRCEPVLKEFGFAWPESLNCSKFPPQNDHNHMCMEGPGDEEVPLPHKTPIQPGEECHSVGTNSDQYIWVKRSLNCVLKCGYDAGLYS
Assay: cell-based or functional assay

B1: human recombinant norrin (ligand, UniProt Q00604 25-133, looked up)
chain: KTDSSFIMDSDPRRCMRHHYVDSISHPLYKCSSKMVLLARCEGHCSQASRSEPLVSFSTVLKQPFRSSCHCCRPQTSKLKALRLRCSGGMRLTATYRYILSCHCEECNS
  TCF/LEF firefly luciferase reporter in HEK-293 cells transfected with FZD4 and LRP5; average EC50 of 3 assays with human norrin: 0.036 µg/mL
